In patent publication US20220412975A1, “CHARACTERIZING MODULATORS OF ADAMTS-7 AND ADAMTS-12” (The Broad Institute, Inc., priority 2019, published 2022):
*: point of attachment. HiLyteFluor‑488 = fluorophore label at the N-terminus; donor fluorophore = not defined here; K(Quencher) = not defined here; K(quencher) = not defined here; Donor = not defined here; Acm = CC(=O)NC*

Columns and labels:
Assay type in all cases: biochemical
ADAMTS-7 = target: T1, ADAMTS-7 (Homo sapiens, UniProt Q9UKP4, A119V/A123T/A127T/A171V/A193G/A200T/A28V/A36P/A42G/A66V/A78S/A97T/D77A/DEL186-188/DEL228-233/E133D/E190K/E213K/E83Q/G114S/G115N/G117S/G196D/G27H/H100Y/H124S/H234Q/K153R/L143F/L192S/L20I/P189H/P201S/P29L/P33S/P79S/Q99P/R118N/R122Q/R174Q/R195Q/R215Q/R218H/R35L/R75A/R76Q/R87Q/R92L/S170E/S199R/S202G/S214H/T110I/T125V/V182M/V208G/V74A/W225K/Y209S); experiment: ADAMTS-7 enzymatic activity FRET assay, testing of inhibitory compounds
T1 construct: rat ADAMTS-7 signal peptide + prodomain (rat 1-217), fusion partner (N); 2xStrep tag (C); 6xHis tag (C); made in house; host or cells: Expi293 cells
T1 sequence (Q9UKP4 with tags, fused parts or gaps with the stated changes): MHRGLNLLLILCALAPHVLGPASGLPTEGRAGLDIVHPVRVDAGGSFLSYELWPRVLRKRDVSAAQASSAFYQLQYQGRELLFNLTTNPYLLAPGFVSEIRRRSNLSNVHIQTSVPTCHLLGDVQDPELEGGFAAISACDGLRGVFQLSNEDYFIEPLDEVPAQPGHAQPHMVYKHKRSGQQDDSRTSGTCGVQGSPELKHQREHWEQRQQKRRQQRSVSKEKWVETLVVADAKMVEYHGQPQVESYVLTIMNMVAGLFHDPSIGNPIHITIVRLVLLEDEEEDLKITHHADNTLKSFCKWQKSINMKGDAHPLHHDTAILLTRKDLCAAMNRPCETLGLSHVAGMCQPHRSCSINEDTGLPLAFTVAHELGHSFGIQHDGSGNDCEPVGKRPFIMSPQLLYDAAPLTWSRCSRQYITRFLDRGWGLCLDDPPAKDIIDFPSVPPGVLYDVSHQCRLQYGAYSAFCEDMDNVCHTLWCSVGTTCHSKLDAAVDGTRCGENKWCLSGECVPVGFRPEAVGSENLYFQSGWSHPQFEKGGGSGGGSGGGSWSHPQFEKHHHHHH
Description: Purified recombinant ADAMTS-7 (as of SEQ ID NO: 1 or SEQ ID NO: 2) was diluted in reaction buffer (20 mM HEPES pH 8.0, 150 mM NaCl, 5 mM CaCl2, 0.004% Brij, 10 μM ZnCl2) for a concentration of approximately 20 nM. 25 μl of the solution were transferred into each well of a 384-well white microtiter plate (Greiner Bio-One 781075) and 1 μl test compound solution (modulator/inhibitor dissolved in DMSO, at the corresponding concentration) or pure DMSO as a control were added per well. […] Amino acids […] are derived from Thrombospondin-1 sequence (275-289). An additional carboxyl glutamic acid was added after the QXL520 quencher to increase substrate solubility. The microtiter plate was incubated for 120 min at the temperature of 32° C. The increase of fluorescence intensity was measured in appropriate fluorescence plate reader (e.g. TECAN Ultra) using excitation wavelength of 485 nm and emission wavelength of 520 nm. IC50 values were calculated from percentage of inhibition of ADAMTS-7 activity as a function of test compound concentration. IC50 values derived using functional ADAMTS-7 according to SEQ ID NO: 1 or SEQ ID NO: 2, respectively, were not distinguishable, both laying within the experimental error.
The assays to determine the IC50 for ADAMTS inhibition were performed as described earlier herein.

[1] = target: T2, rPro-hCD ADAMTS-7 (SEQ ID NO: 1) (Homo sapiens, UniProt Q9UKP4, A119V/A123T/A127T/A171V/A193G/A200T/A28V/A36P/A42G/A66V/A78S/A97T/D77A/DEL186-188/DEL228-233/E133D/E190K/E213K/E83Q/G114S/G115N/G117S/G196D/G27H/H100Y/H124S/H234Q/K153R/L143F/L192S/L20I/P189H/P201S/P29L/P33S/P79S/Q99P/R118N/R122Q/R174Q/R195Q/R215Q/R218H/R35L/R75A/R76Q/R87Q/R92L/S170E/S199R/S202G/S214H/T110I/T125V/V182M/V208G/V74A/W225K/Y209S); experiment: FRET peptide substrate cleavage by rPro-hCD (SEQ ID NO: 1); conditions: for kcat, Enzyme SEQ ID NO: 1: rPro-hCD: approx. 100 nM enzyme, 10 μM peptide substrate; for cleavage activity with ADAMTS-7 human catalytic domain constructs (in words): rPro-hCD (SEQ ID NO: 1) and FM2 (SEQ ID NO: 2) constructs; for activity profile of modified S1 substrates (in words): S1 peptide with additional hydrophilic moiety, data not shown
T2 construct: rat ADAMTS-7 signal peptide + prodomain (rat 1-217), fusion partner (N); 2xStrep tag (C); 6xHis tag (C); made in house; host or cells: Expi293 cells
Description: (§1) Purified recombinant ADAMTS-7 (as of SEQ ID NO: 1 or SEQ ID NO: 2) and purified recombinant rADAMTS-7 (rat ADAMTS-7 residues 1-575 with a carboxyl terminal Flag, SEQ ID NO: 3) were used to identify substrates from the TSP1 and COMP candidate peptides. ADAMTS-7 was diluted in reaction buffer (20 mM HEPES pH 8.0, 150 mM NaCl, 5 mM CaCl2, 0.004% Brij, 10 μM ZnCl2) for a concentration of approximately 100 nM and pre-incubated for 2 hr at room temperature prior to reaction start with 10 μM candidate peptide substrates. There were some differences between optimized buffer data and reported 2 mM Zn^2+ buffer data (Liu 2006 FASEB J); for example, the published amount of Zinc in assay buffer caused the purified ADAMTS-7 proteins to precipitate. Candidate FRET substrates based on SEQ ID NO: 4 to 10 were generated through custom synthesis by Anaspec—AnaSpec, EGT (34801 Campus Drive, Fremont, Calif. 94555, USA); as explained by the manufacturer; AnaSpec, EGT Group's pH insensitive HiLyte™ Fluor dyes are a series of fluorescent labeling dyes with fluorescence emissions that span the full visible and near infrared spectrum. HiLyte™ Fluor dyes and AnaSpec's proprietary quenchers QXL™ have been used as fluorophore and quencher pairs for fluorescence resonance energy transfer (FRET) in our Examples in the reaction buffer.
(§2) The TSP substrate sequences indicate the cleavage site (underlined) between glutamate and leucine as determined by mass spectrometry. COMP substrate cleavage products were below the detection limit of the mass spectrometer.

[2] = target: T3, rPro-hCD-FM2 ADAMTS-7 (SEQ ID NO: 2) (Homo sapiens, UniProt Q9UKP4, A119V/A123T/A127T/A171V/A193G/A200T/A28V/A36P/A42G/A66V/A78S/A97T/D77A/DEL186-188/DEL228-233/E133D/E190K/E213K/E83Q/G114S/G115N/G117S/G196D/G27H/H100Y/H124S/H234Q/K153R/L143F/L192S/L20I/P189H/P201S/P29L/P33S/P79S/Q235K/Q99P/R118N/R122Q/R174Q/R195Q/R215Q/R218H/R35L/R75A/R76Q/R87Q/R92L/S170E/S199R/S202G/S214H/T110I/T125V/V182M/V208G/V74A/W225K/Y209S); experiment: FRET peptide substrate cleavage by rPro-hCD-FM2 (SEQ ID NO: 2); conditions: approx. 100 nM enzyme, 10 μM peptide substrate
T3 construct: rat ADAMTS-7 signal peptide + prodomain (rat 1-217, Q216K), fusion partner (N); 2xStrep tag (C); 6xHis tag (C); made in house; host or cells: Expi293 cells
T3 sequence (Q9UKP4 with tags, fused parts or gaps with the stated changes): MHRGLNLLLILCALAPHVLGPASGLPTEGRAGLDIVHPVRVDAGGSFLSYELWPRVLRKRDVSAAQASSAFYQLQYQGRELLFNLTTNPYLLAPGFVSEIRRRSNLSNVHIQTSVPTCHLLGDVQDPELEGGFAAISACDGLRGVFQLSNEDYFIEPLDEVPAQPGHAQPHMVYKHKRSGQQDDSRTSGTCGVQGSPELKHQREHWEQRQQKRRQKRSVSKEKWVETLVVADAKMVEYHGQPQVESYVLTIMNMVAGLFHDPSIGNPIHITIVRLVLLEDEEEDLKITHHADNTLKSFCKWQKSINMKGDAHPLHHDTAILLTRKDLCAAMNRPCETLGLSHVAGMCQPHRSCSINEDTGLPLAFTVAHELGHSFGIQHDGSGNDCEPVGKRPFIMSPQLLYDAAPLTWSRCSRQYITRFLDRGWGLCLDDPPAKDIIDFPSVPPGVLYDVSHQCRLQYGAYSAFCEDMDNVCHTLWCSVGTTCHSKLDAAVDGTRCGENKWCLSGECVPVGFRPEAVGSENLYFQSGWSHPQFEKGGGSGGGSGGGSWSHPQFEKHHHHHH
Description: as §1, §2

rADAMTS7 (1-575) = target: T4, rADAMTS7 (1-575) (Rattus norvegicus, UniProt Q1EHB3); experiment: FRET peptide substrate cleavage by rADAMTS7 (1-575) (SEQ ID NO: 3); conditions: approx. 100 nM enzyme, 10 μM peptide substrate
T4 construct: Flag (C); made in house; host or cells: Expi293 cells
T4 sequence (Q1EHB3 with tags, fused parts or gaps): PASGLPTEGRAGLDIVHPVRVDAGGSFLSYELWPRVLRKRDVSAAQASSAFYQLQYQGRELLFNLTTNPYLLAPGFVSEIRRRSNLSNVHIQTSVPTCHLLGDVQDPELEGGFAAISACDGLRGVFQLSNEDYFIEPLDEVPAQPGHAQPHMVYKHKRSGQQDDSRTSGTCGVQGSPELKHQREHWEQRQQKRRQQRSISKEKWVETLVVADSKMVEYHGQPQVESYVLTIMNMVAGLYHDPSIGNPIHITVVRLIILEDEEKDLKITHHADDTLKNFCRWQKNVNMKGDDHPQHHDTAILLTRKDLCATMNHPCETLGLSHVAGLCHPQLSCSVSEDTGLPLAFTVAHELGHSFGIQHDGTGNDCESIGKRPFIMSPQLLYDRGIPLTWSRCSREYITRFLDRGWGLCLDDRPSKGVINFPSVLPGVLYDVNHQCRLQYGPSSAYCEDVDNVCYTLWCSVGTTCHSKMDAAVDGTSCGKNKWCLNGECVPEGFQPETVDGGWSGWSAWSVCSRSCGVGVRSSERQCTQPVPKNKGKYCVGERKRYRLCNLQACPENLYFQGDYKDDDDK
Description: as §1, §2

Row | Molecule | IC50 (ADAMTS-7) | kcat, Enzyme SEQ ID NO: 1: rPro-hCD [1] | cleavage activity with ADAMTS-7 human catalytic domain constructs (in words) [1] | kcat, Enzyme SEQ ID NO: 2: rPro-hCD-FM2 [2] | kcat, Enzyme SEQ ID NO: 3: rADAMTS7 (1-575) (rADAMTS7 (1-575)) | activity profile of modified S1 substrates (in words) [1]
1 | CC(C)(C)C1(CNC(=O)c2cnc(-c3ccccc3)o2)NC(=O)NC1=O (racemic) [Example 12.4, rac-{[4-tert-butyl-2,5-dioxoimidazolidin-4-yl]methyl}-2-phenyl-1,3-oxazole-5-carboxamide] | 480 nM |  |  |  |  | 
2 | O=C1NC(=O)[C@](CNC(=O)c2cc(-c3cnn(CC4CC4)c3)no2)(C2CC2)N1 [Example 12.3, N-{[(4R)-4-cyclopropyl-2,5-dioxoimidazolidin-4-yl]methyl}-3-[1-(cyclopropylmethyl)-1H-pyrazol-4-yl]-1,2-oxazole-5-carboxamide] | 550 nM |  |  |  |  | 
3 | (Donor) GMQQSVRTGLPS (K-Quencher) ({donor fluorophore}-GMQQSVRTGLPS-{K(quencher)}; reading uncertain; also: donor fluorophore and quencher not given here, printed as (Donor) GMQQSVRTGLPS (K-Quencher)) [COMP1, FRET candidate peptide, COMP amino acids 73-84] |  | 1.22e-05 s⁻¹ | No activity | 1.27e-05 s⁻¹ | 8.17e-06 s⁻¹ | 
4 | (Donor) SPGFRCEACPPGYS (K-Quencher) (Donor-SPGFRC(Acm)EAC(Acm)PPGYS-{K(Quencher)}; reading uncertain; also: printed as (Donor) SPGFRCEACPPGYS (K-Quencher)) [COMP2, FRET candidate peptide, COMP amino acids 146-159, Acm modified cysteines] |  | 6.33e-06 s⁻¹ | No activity | 6.5e-06 s⁻¹ | 8.33e-06 s⁻¹ | 
5 | (HiLyteFluor-488)-DELSSMVLELRGLRT-K(QXL520)-E-NH2 ({HiLyteFluor‑488}-DELSSMVLELRGLRTK(QXL520)E-NH2) [SEQ ID NO: 11, S1 peptide substrate with additional carboxyl glutamic acid after the quencher] |  |  |  |  |  | not significantly affected
6 | (HiLyteFluor-488)-DELSSMVLELRGLRT-K(QXL520)-K-NH2 ({HiLyteFluor‑488}-DELSSMVLELRGLRTK(QXL520)K-NH2) [SEQ ID NO: 12, S1 peptide substrate with additional lysine after the quencher] |  |  |  |  |  | not significantly affected
7 | (HiLyteFluor-488)-DELSSMVLELRGLRT-K(QXL520)-NH2 ({HiLyteFluor‑488}-DELSSMVLELRGLRTK(QXL520)-NH2) [TSP1-1, FRET peptide substrate for ADAMTS-7/12, TSP1 amino acids 275-289] |  | 0.00035 s⁻¹ | greatest specificity | 0.0004 s⁻¹ | 0.000167 s⁻¹ | 
8 | (HiLyteFluor-488)-DELSSMVLELRGLRT-K(QXL520)-OH ({HiLyteFluor‑488}-DELSSMVLELRGLRTK(QXL520)-OH) [SEQ ID NO: 13, S1 peptide substrate ending in -OH] |  |  |  |  |  | not significantly affected
9 | (HiLyteFluor-488)-EENKELANELRRPPL-K (QXL520)-NH2 ({HiLyteFluor‑488}-EENKELANELRRPPLK(QXL520)-NH2) [TSP1-4, FRET candidate peptide, TSP1 amino acids 303-317] |  | 3.33e-05 s⁻¹ | No significant activity | 3.5e-05 s⁻¹ | 4.33e-05 s⁻¹ | 
10 | (HiLyteFluor-488)-KVTEENKELANELRR-K (QXL520)-NH2 ({HiLyteFluor‑488}-KVTEENKELANELRRK(QXL520)-NH2) [TSP1-3, FRET candidate peptide, TSP1 amino acids 300-314] |  | 2e-05 s⁻¹ | No significant activity | 2e-05 s⁻¹ | 2.33e-05 s⁻¹ | 
11 | (HiLyteFluor-488)-SSMVLELRGLRT-K(QXL520)-NH2 ({HiLyteFluor‑488}-SSMVLELRGLRTK(QXL520)-NH2) [TSP1-5, FRET peptide substrate, TSP1 amino acids 278-289] |  | 3.33e-05 s⁻¹ | Activity was observed | 3.5e-05 s⁻¹ | 4.17e-05 s⁻¹ | 
12 | (HiLyteFluor-488)-SSMVLELRGLRTIVT-K(QXL520)-NH2 ({HiLyteFluor‑488}-SSMVLELRGLRTIVTK(QXL520)-NH2) [TSP1-2, FRET peptide substrate, TSP1 amino acids 278-292] |  | 5.33e-05 s⁻¹ | cleaved | 4.83e-05 s⁻¹ | 0.000128 s⁻¹ | 
